Patent US20200317768A1 (published 2020)

T1: cynomolgus monkey FcγRIIIaS extracellular domain with C-terminal His-tag (cynomolgus monkey, UniProt Q8SPW2 21-206 at identity 1.00))
T1 construct: also called cyno FcgRIIIaS; cynoFcγRIIIaS
T1 chain: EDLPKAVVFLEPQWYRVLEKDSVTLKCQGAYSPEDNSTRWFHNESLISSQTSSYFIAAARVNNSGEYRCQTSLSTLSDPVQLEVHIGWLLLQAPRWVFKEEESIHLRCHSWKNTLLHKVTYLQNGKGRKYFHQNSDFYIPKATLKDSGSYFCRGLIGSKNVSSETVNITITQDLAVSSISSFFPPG


Molecular target: T1, cynomolgus monkey FcγRIIIaS …
Test: SPR (BIACORE); KD of SG1 / KD of variant;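 also: relative to parent M103205H795-SG1 carrying the SG1 human heavy chain constant region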

Binder	KD fold (SG1 = 1) [fold]
M103205H795-MY209/M103202L889-SK1 (antibody, human IgG1, kappa, Substitutions introduced into M103205H795-SG1, expressed with M103202L889-SK1 as light chain; EU numbering) heavy: QVTLKESGPVLVKPTETLTLTCTVSGIDLSHDDISWVRQAPGKGLEWVGIISYAGSTYYASWAKGRLTISKDTSKNQVVLTMTNMDPVDTATYYCARGVPAYSHGGDLWGQGTLVTVSSASTKGPSVFPLAPSSKSTSGGTAALGCLVKDYFPEPVTVSWNSGALTSGVHTFPAVLQSSGLYSLSSVVTVPSSSLGTQTYICNVNHKPSNTKVDKKVEPKSCDKTHTCPPCPAPELLNGPSVFLFPPKPKDTLMISRTPEVTCVVVDVSDEDPEVKFNWYVDGVEVHNAKTKPREELYNSTYRVVSVLTVLHQDWLNGKEYKCKVSNTALPKPIEKTISKAKGQPREPQVYTLPPSREEMTKNQVSLTCLVKGFYPSDIAVEWESNGQPENNYKTTPPVLDSDGSFFLYSKLTVDKSRWQQGNVFSCSVMHEALHNHYTQKSLSLSP light: DIVMTQSPATLSLSPGERATLSCTSSQSVYHANWLSWFQQKPGQPPKLLIYWASTLAYGVPSRFSGSGSGTDFTLTISSLQPEDAATYYCAGGYGGGRYAFGQGTKVEIKRTVAAPSVFIFPPSDEQLKSGTASVVCLLNNFYPREAKVQWKVDNALQSGNSQESVTEQDSKDSTYSLSSTLTLSKADYEKHKVYACEVTHQGLSSPVTKSFNRGEC	0.16
M103205H795-MY341/M103202L889-SK1 (antibody, human IgG1, kappa, Substitutions introduced into M103205H795-SG1, expressed with M103202L889-SK1 as light chain; EU numbering) heavy: QVTLKESGPVLVKPTETLTLTCTVSGIDLSHDDISWVRQAPGKGLEWVGIISYAGSTYYASWAKGRLTISKDTSKNQVVLTMTNMDPVDTATYYCARGVPAYSHGGDLWGQGTLVTVSSASTKGPSVFPLAPSSKSTSGGTAALGCLVKDYFPEPVTVSWNSGALTSGVHTFPAVLQSSGLYSLSSVVTVPSSSLGTQTYICNVNHKPSNTKVDKKVEPKSCDKTHTCPPCPAPELLLGPSVFLFPPKPKDTLMISRTPEVTCVVVDVSDEDPEVKFNWYVDGVEVHNAKTKPREELYNSTYRVVSVLTVLHQDWLNGKEYKCKVSNTALPKPIEKTISKAKGQPREPQVYTLPPSREEMTKNQVSLTCLVKGFYPSDIAVEWESNGQPENNYKTTPKVLDSDGSFFLYSKLTVDKSRWQQGNVFSCSVMHEALHNHYTQKSLSLSP light: DIVMTQSPATLSLSPGERATLSCTSSQSVYHANWLSWFQQKPGQPPKLLIYWASTLAYGVPSRFSGSGSGTDFTLTISSLQPEDAATYYCAGGYGGGRYAFGQGTKVEIKRTVAAPSVFIFPPSDEQLKSGTASVVCLLNNFYPREAKVQWKVDNALQSGNSQESVTEQDSKDSTYSLSSTLTLSKADYEKHKVYACEVTHQGLSSPVTKSFNRGEC	0.38
M103205H795-MY339/M103202L889-SK1 (antibody, human IgG1, kappa, Substitutions introduced into M103205H795-SG1, expressed with M103202L889-SK1 as light chain; EU numbering) heavy: QVTLKESGPVLVKPTETLTLTCTVSGIDLSHDDISWVRQAPGKGLEWVGIISYAGSTYYASWAKGRLTISKDTSKNQVVLTMTNMDPVDTATYYCARGVPAYSHGGDLWGQGTLVTVSSASTKGPSVFPLAPSSKSTSGGTAALGCLVKDYFPEPVTVSWNSGALTSGVHTFPAVLQSSGLYSLSSVVTVPSSSLGTQTYICNVNHKPSNTKVDKKVEPKSCDKTHTCPPCPAPELLLGPSVFLFPPKPKDTLMISRTPEVTCVVVDVSDEDPEVKFNWYVDGVEVHNAKTKPREEQYNSTYRVVSVLTVLHQDWLNGKEYKCKVSNTALPKPIEKTISKAKGQPREPQVYTLPPSREEMTKNQVSLTCLVKGFYPSDIAVEWESNGQPENNYKTTPKVLDSDGSFFLYSKLTVDKSRWQQGNVFSCSVMHEALHNHYTQKSLSLSP light: DIVMTQSPATLSLSPGERATLSCTSSQSVYHANWLSWFQQKPGQPPKLLIYWASTLAYGVPSRFSGSGSGTDFTLTISSLQPEDAATYYCAGGYGGGRYAFGQGTKVEIKRTVAAPSVFIFPPSDEQLKSGTASVVCLLNNFYPREAKVQWKVDNALQSGNSQESVTEQDSKDSTYSLSSTLTLSKADYEKHKVYACEVTHQGLSSPVTKSFNRGEC	0.47
M103205H795-MY340/M103202L889-SK1 (antibody, human IgG1, kappa, Substitutions introduced into M103205H795-SG1, expressed with M103202L889-SK1 as light chain; EU numbering) heavy: QVTLKESGPVLVKPTETLTLTCTVSGIDLSHDDISWVRQAPGKGLEWVGIISYAGSTYYASWAKGRLTISKDTSKNQVVLTMTNMDPVDTATYYCARGVPAYSHGGDLWGQGTLVTVSSASTKGPSVFPLAPSSKSTSGGTAALGCLVKDYFPEPVTVSWNSGALTSGVHTFPAVLQSSGLYSLSSVVTVPSSSLGTQTYICNVNHKPSNTKVDKKVEPKSCDKTHTCPPCPAPELLLGPSVFLFPPKPKDTLMISRTPEVTCVVVDVSDEDPEVKFNWYVDGVEVHNAKTKPREELYNSTYRVVSVLTVLHQDWLNGKEYKCKVSNKALPKPIEKTISKAKGQPREPQVYTLPPSREEMTKNQVSLTCLVKGFYPSDIAVEWESNGQPENNYKTTPKVLDSDGSFFLYSKLTVDKSRWQQGNVFSCSVMHEALHNHYTQKSLSLSP light: DIVMTQSPATLSLSPGERATLSCTSSQSVYHANWLSWFQQKPGQPPKLLIYWASTLAYGVPSRFSGSGSGTDFTLTISSLQPEDAATYYCAGGYGGGRYAFGQGTKVEIKRTVAAPSVFIFPPSDEQLKSGTASVVCLLNNFYPREAKVQWKVDNALQSGNSQESVTEQDSKDSTYSLSSTLTLSKADYEKHKVYACEVTHQGLSSPVTKSFNRGEC	0.16
M103205H795-MY283/M103202L889-SK1 (antibody, human IgG1, kappa, Substitutions introduced into M103205H795-SG1, expressed with M103202L889-SK1 as light chain; EU numbering) heavy: QVTLKESGPVLVKPTETLTLTCTVSGIDLSHDDISWVRQAPGKGLEWVGIISYAGSTYYASWAKGRLTISKDTSKNQVVLTMTNMDPVDTATYYCARGVPAYSHGGDLWGQGTLVTVSSASTKGPSVFPLAPSSKSTSGGTAALGCLVKDYFPEPVTVSWNSGALTSGVHTFPAVLQSSGLYSLSSVVTVPSSSLGTQTYICNVNHKPSNTKVDKKVEPKSCDKTHTCPPCPAPELLTGPSVFLFPPKPKDTLMISRTPEVTCVVVDVSDEDPEVKFNWYVDGVEVHNAKTKPREELYNSTYRVVSVLTVLHQDWLNGKEYKCKVSNKALPKPIEKTISKAKGQPREPQVYTLPPSREEMTKNQVSLTCLVKGFYPSDIAVEWESNGQPENNYKTTPPVLDSDGSFFLYSKLTVDKSRWQQGNVFSCSVMHEALHNHYTQKSLSLSP light: DIVMTQSPATLSLSPGERATLSCTSSQSVYHANWLSWFQQKPGQPPKLLIYWASTLAYGVPSRFSGSGSGTDFTLTISSLQPEDAATYYCAGGYGGGRYAFGQGTKVEIKRTVAAPSVFIFPPSDEQLKSGTASVVCLLNNFYPREAKVQWKVDNALQSGNSQESVTEQDSKDSTYSLSSTLTLSKADYEKHKVYACEVTHQGLSSPVTKSFNRGEC	0.16
M103205H795-MY342/M103202L889-SK1 (antibody, human IgG1, kappa, Substitutions introduced into M103205H795-SG1, expressed with M103202L889-SK1 as light chain; EU numbering) heavy: QVTLKESGPVLVKPTETLTLTCTVSGIDLSHDDISWVRQAPGKGLEWVGIISYAGSTYYASWAKGRLTISKDTSKNQVVLTMTNMDPVDTATYYCARGVPAYSHGGDLWGQGTLVTVSSASTKGPSVFPLAPSSKSTSGGTAALGCLVKDYFPEPVTVSWNSGALTSGVHTFPAVLQSSGLYSLSSVVTVPSSSLGTQTYICNVNHKPSNTKVDKKVEPKSCDKTHTCPPCPAPELLLGPSVFLFPPKPKDTLMISRTPEVTCVVVDVSDEDPEVKFNWYVDGVEVHNAKTKPREELYNSTYRVVSVLTVLHQDWLNGKEYKCKVSNKALPKPIEKTISKAKGQPREPQVYTLPPSREEMTKNQVSLTCLVKGFYPSDIAVEWESNGQPENNYKTTPMVLDSDGSFFLYSKLTVDKSRWQQGNVFSCSVMHEALHNHYTQKSLSLSP light: DIVMTQSPATLSLSPGERATLSCTSSQSVYHANWLSWFQQKPGQPPKLLIYWASTLAYGVPSRFSGSGSGTDFTLTISSLQPEDAATYYCAGGYGGGRYAFGQGTKVEIKRTVAAPSVFIFPPSDEQLKSGTASVVCLLNNFYPREAKVQWKVDNALQSGNSQESVTEQDSKDSTYSLSSTLTLSKADYEKHKVYACEVTHQGLSSPVTKSFNRGEC	0.14
